Test results taken from the DeepSol protein solubility set.

Assay: soluble on expression in E. coli; label from the status in PepcDB or PDB records

Sequence	soluble on expression in E. coli
MMEHDRARTRAWVLHPELKSDLDRRDPVPALEEAVALAAALPDLDVVGSGIVRLPKPHPGHLFGSGKVEELATLFHDNEVELVLIDGPLSPVQQRNLEKAWKVKILDRTGLILEIFSDRARTREGVLQVEMAALSYQRTRLVRAWTHLERQRGGLGFVGGPGETQIEADRRAIDEQLVRLKRQLDKVVKTRELHRKARAKVPYPIVALVGYTNAGKSTLFNRLTGAEVMAKDMLFATLDPTMRRVVLPDGPEVILSDTVGFISDLPTELVAAFRATLEEVLAADLIVHVRDIHHAATEEQARDVETILASLGVDEGRPKFEVWNKVDLLDPDKRAALRERTARDPSLFAVSAVTGEGLESLLTAIAEALAETRSEAVLTLGFADGKRRAWLFAQDVVQAEEQSDDGFRLTVLWTPRQAARYAALLEHHHHHH	soluble
MSVDEKPIKIKVEKVSKIFGKQTKKAVQMLANGKAKKEILKATGSTVGVNQADFEVYDGEIFVIMGLSGSGKSTLVRMLNRLIEPTAGNIYIDGDMITNMSKDQLREVRRKKISMVFQKFALFPHRTILENTEYGLELQGVDKQERQQKALESLKLVGLEGFEHQYPDQLSGGMQQRVGLARALTNDPDILLMDEAFSALDPLIRKDMQDELLDLHDNVGKTIIFITHDLDEALRIGDRIVLMKDGNIVQIGTPEEILMNPSNEYVEKFVEDVDLSKVLTAGHIMKRAETVRIDKGPRVALTLMKNLGISSIYAVDKQKKLLGVIYASDAKKAAESDLSLQDILNTEFTTVPENTYLTEIFDVVSDANIPIAVVDEKQRMKGIVVRGALIGALAGNNEYINAEGT	not soluble
MRRNKRERQELLQQTIQATPFITDEELAGKFGVSIQTIRLDRLELSIPELRERIKNVAEKTLEDEVKSLSLDEVIGEIIDLELDDQAISILEIKQEHVFSRNQIARGHHLFAQANSLAVAVIDDELALTASADIRFTRQVKQGERVVAKAKVTAVEKEKGRTVVEVNSYVGEEIVFSGRFDMYRSKHSLEHHHHHH	soluble
MAPKCWSNLPSDVKREVLEHGDCQQWFNVRLCSRADMNLVDSLKLRIPFLKIQISNTTFSIIIVESPSAILRIDLHQKSGGNAEFSVEIFKNSDLELGNLIKTIENTTLDAEISNLLEKSIFHRKIDIATCQIQADGLQAENPVLAMIHAKFTENAPKKLIFSGKSMEENRFLAKFFENLNIDFVFRSWRKDLSREWGEGMNHLRIKIFEVSKWTTLLGDFEHFTAYDEIEPVMYMARILSRPMKRSHWFPGFHVPVAERLFRQIFRQEMFEKFENHSIRKSPINLKLWIFVKFTKCGISIFVGDPKDFNERDGTCDLEWMCPNCAPKTMENWFFRETIGKLHF	not soluble
VKVQPNDYVFRDLANHNQIFVKDKDPKVYNNPYYIDQVQLKDAQQTDLTSIQASFTTLDGVDKTEILKELKVTDKNQNAIQISDITLDTSKSLLIIKGDFNPKQGHFNISYNGNNVTTRQSWEFKDQLYAYSGNLGAVLNQDGSKVEASLWSPSADSVTMIIYDKDNQNRVVATTPLVKNNKGVWQTILDTKLGIKNYTGYYYLYEIKRGKDKVKILDPYAKSLAEWDSNTVNDDIKTAKAAFVNPSQLGPQNLSFAKIANFKGRQDAVIYEAHVRDFTSDQSLDGKLKNQLGTFAAFSEKLDYLQKLGVTHIQLLPVLSYFYVNEMDKSRSTAYTSSDNNYNWGYDPQSYFALSGMYSEKPKDPSARIAELKQLIHDIHKRGMGVILDVVYNHTAKTYLFEDIEPNYYHFMNEDGSPRESFGGGRLGTTHAMSRRVLVDSIKYLTSEFKVDGFRFDMMGDHDAAAIELAYKEAKAINPNMIMIGEGWRTFQGDQGKPVKPADQDWMKSTDTVGVFSDDIRNSLKSGFPNEGTPAFITGGPQSLQGIFKNIKAQPGNFEADSPGDVVQYIAAHDNLTLHDVIAKSINKDPKVAEEDIHRRLRLGNVMILTSQGTAFIHSGQEYGRTKRLLNPDYMTKVSDDKLPNKATLIEAVKEYPYFIHDSYDSSDAINHFDWAAATDNNKHPISTKTQAYTAGLITLRRSTDAFRKLSKAEIDREVSLITEVGQGDIKEKDLVIAYQTIDSKGDIYAVFVNADSKARNVLLGEKYKHLLKGQVIVDADQAGIKPISTPRGVHFEKDSLLIDPLTAIVIKVGKVAPSPKEELQADYPKTQSFKGSKTVEKVNRIANKTSITPVVSNKTDSYLTNEANLEHHHHHH	soluble
EKKEQKEKEKKEQEIKKKFKLTGPIQVIHLAKACCDVKGGKNELSFKQGEQIEIIRITDNPEGKWLGRTARGSYGYIKTTAVEIDYDSLKLKKDLE	soluble
MENLKETVDIVVNSRYPEMNREGRELLAQVLIRKELEKGEMLLNEGQISRHMVFVGKGMLRQFYYKNGKDVTEHFSYEGCILMCIESLLKQEPTHLMAEALEPAVVYMLPYDVLQKLLEQSKEINAFYRKVLEYSLIVSQIKADSWRFETARERYNLLLHHHPEIIKRAPLSHIASYLLMTPETLSRVRSGVL	not soluble
MNKIKILSITLEKRIISKNENDHSHQVIGQETEMTSKLEIRHKQRQDEIINAARRCFRRCGFHAASMSQIASEAQLSVGQIYRYFANKDAIIEEMVRRIIDFRIAQMDIDARTDHFPEVLALRKSLNEDDDALMLEVAAEATRNPRVMAMLEEADARMFANGCAHMKRMHPHLSDEHIRCCVEVFATMMEGTVYRRLTPQKSDPQHLQEIYQDIVSMLINK	not soluble
MIFMNMVNRERELQALKKRLSSNDLELIIIYGRRRIGKTFLIINAVNGYDFIYYLATEKNNLRKFKELTESKYEDIKYVKEDWEAIFHYLRDKIIIIDEFPYMIKEDESILSTFQKIVDETLKGSKTKLILLGSSISMMEDAISYKSPLYGRRTASIELKELKFKDLKGFNFSLIDAIHVYGFAGGVPFYLTKAKTPFLKWINAELKEVDSFIKDEIDFMLRYEFSEIGTYKEILHAISSGKNTLGEIKDFVRISGDVSSYLNKLEKIGIIGKEFPYKMKKGARYYIKDNFTLFWFTFIYPNLSLIEEGIYEIKEDEYNVYLGRIFEKIAREYVEDVYKVKVERLWFKDVEIDIYGDGIAGECKWSEGINGEKVLYELKRKVEDLGLDVKKYIIFAKSFSKTNEEAEFIDLKKLEQWYRTLEHHHHHH	soluble
MSLKWIDSHIHVDQYKDEEKSKLLKDVEHSKEIKGLIAVSMNYQSSKETVSLAKRYPFVHPAIGFHPEQPIHKEECEKIYKLIEEHVEDIVAIGEVGLPYYLRKEDKRIAVNSYISVLQRFVELASKYDLPIILHAVYEDADIVCDLLEKYKVSRAHFHWFKGSETTMKRMMRNGYYISITPDVLHKEKIRKIVSYYPLEYMMVETDGPWEFQDDVMTHPGMIREVLKEISVIKNMSVDKVMKTIYENTIQFYPTLTGNKTPTSKFDEGHHHHHH	not soluble
MGSDKIHHHHHHMQPSNSWVCLSALEKQVVAATASLDNRGLAYADGFFTTMGVINGQILWAEYHHQRLISHAKALQLDLDSWSLLSTLQVHAQQHRQGMLKLIITRAAQDIRGYGYTPSECGSACESWLKSLAMTVSTAEQLSLNDECSIPVQPVSTAVCLSSQIACLPPSIAGLKTLNRLDNVLASAELQGIKTRVLASNGEGDISEGLLRDMTGRWVEGTMSNVFYQLSDSRLVDSPSSEMINIPNNKSNTNYLTQGQWYTPSMAQSGVAGVMRQVIIDELSTTKYPVVVRSLQDKDLPQLQQLFFCNALRGIMPMASLTLLSGEMVGF	not soluble
MFKRTKLILIATILLSGCSTTNNESNNETKSVPEEMEASKYVGQGFQPPAEKDAVEFAKKHKDKIAKRGEQFFMDNFGLKVKATNVVGSGDGVEVFVHCDDHDIVFNASIPFDKSIIDSDSSLRSEDKGDDMSTLVGTVLSGFEYRAQKEKYDNLYKFFKENEKKYQYTGFTKEAINKTQNSGYENEYFYIVANIPTLQEYRKYYEPLIKKNNLNFKKGMKQARKGVGYKAAIEVHTTLFSRSSNFSKDKKLDDVIDLSESTKKLHLNFENTKIFLQLAKSTISTNRVNYSDNESIRIEVELEHHHHHH	soluble
MANFESSVKVIPYSQERVYAKLSDLSNLESVKGRLPEDKIQDLSFDSDTLSFSVSPIGQLTLQIVEREPCKCIKLATTNSPLPFNMWIQLVSTAEEECKLKVTISMDINPFMKAMVQKPLQDGLEKMVEMLSMINYLEHHHHHH	soluble
MRKVETTKAPQAIGPYSQGIIVNNMFYSSGQIPLTPEGELVKGDIQAQTHQVFQNLKAVLEAAGASLDTVVKTTVFLKNMDDFAAMNEVYSQYFPNHKPARSCVEVARLPKDVLVEIEVVALVP	soluble
MDVKLLAHTQLSEEFVNYLSVVFGIGDEGFDPTHGQVVALSAIRTCYSPNKPSRIVSLEGEKYFKGKATDGKGGKEVDRLIRHIVGSGHASTLEHLTYTFAVEGVSRALLAQLTRHRVGFSYSVQSQRYVRMGSNDKIGGFDYVVPETVKAKGEQVVNAYNEMMYKLQSGYDLLRTLGIPAEDARSVLPNAAATNLVLTVNLRGLLDFYNKRRKGKGAQAEIAELAEQLRQEVVKVEKWVDEFFWKWKVTEV	not soluble
AKVIFVLAMDVSGKIASSVESWSSFEDRKNFRKITTEIGNVVMGRITFEEIGRPLPERLNVVLTRRPKTSNNPSLVFFNGSPADVVKFLEGKGYERVAVIGGKTVFTEFLREKLVDELFVTVEPYVFGKGIPFFDEFEGYFPLKLLEMRRLNERGTLFLKYSVEKSHR	soluble
MGSDKIHHHHHHMLPGSRSLSKELGINRKTVQAVYEELEAQGWLVTRPRKGTFVADVLPEKKPHIEPRADRKVSNKPIIQQVAQRPHNDGVPDPRLIPYELFSRAYRHALIKITQNQYMGYGDPRGMAELRQALKQMLSMERFMNVAEDEICVVRGSQMGIFLASRALPNRQGVIVVEELYYPSAVKAFQSNGFQVVSVKLDDQGIVIEDLERILKEHSVAAIYTTPHHQYPTTVTMTMSRRLQLLELSKKWGFYIIEDDYDHEFHYDSRPMPPLASLPHSELVIHVGSLSKVFAPGIRLGYIVAAPTIIQTITEDILLIDRQGNNITELALADLMQRGEIKRHIRKMKKIYQLRRDHALAEFQRVFAESIEIQPPAGGMALWVKFQKSFTQDQLIKLKELNIDTEQKFKQKECANHCIRFGFAALSEKEITSLIETLNEAL	not soluble
MNQEVRFSRLEPEQRKALLIEATLACLKRHGFQGASVRKICAEAGVSVGLINHHYDGKDALVAEAYLAVTGRVMRLLRGAIDTAPGGARPRLSAFFEASFSAELLDPQLLDAWLAFWGAVGSIEAIGRVHDHSYGEYRALLVGVLRQLAEEGGWADFDAELAAISLSALLDGLWLESGLNPATFTPRQGVQICEAWVDGLEAGAHRRFRRAMEAC	soluble
MSLKHSKIRIAHISDIHIGSRLDKLPQKMVNKIIEENPDLVVITGDLIDSHNVISTDLASFNAFKERNIPIYYTIGNHDIMAGEEYVSSILEYYGIIYLKNQVTQITIGDETIQLVGIDDVQSITKYNEIFNSITPSIHNNIYTILLHHRPQGYKTSVQSGQIDLQLAGHTHDGQVFPFNYIVPLFHSKSYGMYHIKDEGHHHHHH	not soluble
MQMPRRFNTYCPHCNEHQEHEVEKVRSGRQTGMKWIDRQRERNSGIGNDGKFSKVPGGDKPTKKTDLKYRCGECGKAHLREGWRAGRLEFQE	soluble
